Assay results reported in the supplement of paper PMC10899765.

Assays:
Conditions in all cases: 20 nM; 72 h
MCF10A [1] = assay: one-nucleolus phenotype percent effect (relative to siNT 0% and siNOL11 100%); higher = more cells with one nucleolus (ribosome biogenesis inhibition)
Protocol: (§1)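 After 72 h, cells were fixed and stained with Hoechst and anti-fibrillarin, and nucleoli per nucleus were counted with CellProfiler. Values are plate-adjusted percent effect for the one-nucleolus and 5+ nucleoli phenotypes, normalised to siNT (0%) and to the positive controls siNOL11 or siKIF11 (100%), as the mean of biological triplicates. Percent viability is the nuclei count relative to siNT.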

MCF10A [2] = assay: 5+ nucleoli phenotype percent effect (relative to siNT 0% and siKIF11 100%); higher = more cells with five or more nucleoli
Protocol: as §1

MCF10A [3] = assay: percent viability (nuclei count relative to siNT); higher = more viable cells
Protocol: as §1

Row | Sequence | one-nucleolus phenotype percent effect (MCF10A [1]) [%] | 5+ nucleoli phenotype percent effect (MCF10A [2]) [%] | percent viability (MCF10A [3]) [%]
1 | AAAACUGUAAUUACUUUUGUAC [hsa-miR-548g-3p] | -25.2 | 49.3 | 165
2 | AAUCCUUUGUCCCUGGGUGAGA [hsa-miR-501-5p] | 22.1 | -22.9 | 33.2
3 | UCCCUGAGACCCUUUAACCUGUGA [hsa-miR-125a-5p] | -18.8 | 28.8 | 117
4 | CCGUGUUUCCCCCACGCUUU [hsa-miR-3676-3p] | 4.15 | -17.2 | 72.3
5 | GCUGGGCGAGGCUGGCA [hsa-miR-4486] | 19.5 | 3.78 | 38.6
6 | UCUACAAAGGAAAGCGCUUUCU [hsa-miR-1283] | -26.4 | 29.7 | 148
7 | UGGGCUGGCAGGGCAAGUGCUG [hsa-miR-4498] | 38.7 | -6.13 | 9.7
8 | AACUCGUGUUCAAAGCCUUUAG [hsa-miR-4636] | 8.89 | 12.8 | 53.6
9 | CAAAAACUGCAGUUACUUUUGU [hsa-miR-548am-3p] | -23.3 | 42.5 | 96
10 | CGGUGAGCGCUCGCUGGC [hsa-miR-4792] | 21.1 | -30.2 | 36.6
11 | CUGGUACAGGCCUGGGGGACAG [hsa-miR-150-3p] | 11 | 1.02 | 66.2
12 | GGGAGAAGGGUCGGGGC [hsa-miR-4516] | -25.4 | 31.9 | 94.1
13 | ACUCAUUCUCCUCUGUCCAG [hsa-miR-6758-3p] | -26.2 | 81.4 | 147
14 | CCAGGCUCUGCAGUGGGAACU [hsa-miR-3155a] | -2.13 | 30.4 | 32.5
15 | UUCAAGUAAUUCAGGUG [hsa-miR-1297] | -17.3 | 45.2 | 121
16 | CGUGUCUUCUGGCUUGAU [hsa-miR-4711-3p] | 59.2 | -36.9 | 17.8
17 | GUGGAGUCCUGGGGAAUGGAGA [hsa-miR-3198] | 22 | -28.7 | 25.5
18 | AUCACAUUGCCAGGGAUUUCC [hsa-miR-23a-3p] | -9.26 | -6.74 | 126
19 | UCUUGAAGUCAGAACCCGCAA [hsa-miR-4635] | 19.8 | -29.8 | 45.8
20 | GAAGUUGUUCGUGGUGGAUUCG [hsa-miR-382-5p] | 27.9 | -18.5 | 37.7

Row | Sequence | one-nucleolus phenotype percent effect (MCF10A [1]) [%] | 5+ nucleoli phenotype percent effect (MCF10A [2]) [%] | percent viability (MCF10A [3]) [%]
21 | CAAAGCGCUUCUCUUUAGAGUGU [hsa-miR-518c-3p] | 37.7 | -26.1 | 44.9
22 | UGGGAGCUGGACUACUUC [hsa-miR-4300] | 21.3 | 16.1 | 19.7
23 | CUCUAGAGGGAAGCACUUUCUG [hsa-miR-526a] | 0.562 | -7.42 | 39.9
24 | UUUUGCACCUUUUGGAGUGAA [hsa-miR-507] | 25.1 | -28 | 42.2
25 | UUGGGAUCAUUUUGCAUCCAUA [hsa-miR-450b-3p] | -1.71 | -2.46 | 42.8
26 | UAUGGAGGUUCUAGACCAUGUU [hsa-miR-4802-5p] | 26.9 | 7.79 | 22.7
27 | CAGGUCACGUCUCUGCAGUUAC [hsa-miR-370-5p] | -14.6 | 5.92 | 54.3
28 | CUGCCAGCCCCGUUCCAGGGCA [hsa-miR-3972] | -2.85 | -1.63 | 42.9
29 | CAUUCAACUAGUGAUUGU [hsa-miR-4272] | -23.4 | 33.7 | 170
30 | GAAGAUGGUGCUGUGCUGAGGAA [hsa-miR-4647] | 22.7 | -5.89 | 60.7
31 | UGAGACCAGGACUGGAUGCACC [hsa-miR-4786-5p] | -5.75 | -0.448 | 42.2
32 | AGGGAAAAAAAAAAGGAUUUGUC [hsa-miR-4668-5p] | -20.9 | 61.6 | 65
33 | CCCUCUCUGUCCCACCCAUAG [hsa-miR-6769b-3p] | -27.6 | 91.5 | 73.7
34 | UGCUAUGCCAACAUAUUGCCAU [hsa-miR-31-3p] | 27.9 | -33.1 | 34.2
35 | UAGCACCAUUUGAAAUCGGUUA [hsa-miR-29c-3p] | -21 | 38 | 138
36 | UGCAAAAGUAAUUGCAGUUUUUG [hsa-miR-548x-5p] | -9.86 | -24.2 | 63
37 | UGCAAAAGUAAUUGCAGUUUUUG [hsa-miR-548aj-5p] | -16.2 | 4.35 | 81.8
38 | GCCCCGGGCAGUGUGAUCAUC [hsa-miR-5587-3p] | -20.5 | 18.8 | 108
39 | CGGCCCGGGCUGCUGCUGUUCCU [hsa-miR-1538] | -27.8 | 45 | 144
40 | UUGUUCUUUGGUCUUUCAGCCA [hsa-miR-4677-5p] | 20.3 | -26.7 | 42.5

Row | Sequence | one-nucleolus phenotype percent effect (MCF10A [1]) [%] | 5+ nucleoli phenotype percent effect (MCF10A [2]) [%] | percent viability (MCF10A [3]) [%]
41 | UGGUCUAGGAUUGUUGGAGGAG [hsa-miR-601] | 22.9 | -3.95 | 58.5
42 | UGGGGGCUGGGAUGGGCCAUGGU [hsa-miR-6848-5p] | 7.99 | -4.7 | 22.5
43 | UUCCGCCAGUCGGUGGCCGG [hsa-miR-6084] | -5.3 | 0.691 | 90.2
44 | AGGUUGGGAUCGGUUGCAAUGCU [hsa-miR-92a-1-5p] | 4.93 | -34 | 17.4
45 | CUCUAGAGGGAAGCGCUUUCUG [hsa-miR-522-5p] | -5.68 | 0.209 | 40.6
46 | UCUCUCUCCCACUUCCCUGCAG [hsa-miR-7110-3p] | -0.286 | 1.36 | 25.4
47 | UCCGUCUCAGUUACUUUAUAGC [hsa-miR-340-3p] | 1.48 | 26.3 | 74
48 | CAAUUUAGUGUGUGUGAUAUUU [hsa-miR-32-3p] | -22.3 | 35.1 | 80.6
49 | CUACAGGCUGGAAUGGGCUCA [hsa-miR-7151-3p] | 13.6 | 2.37 | 20.6
50 | GGUGGGGGGUGUUGUUUU [hsa-miR-4472] | 9.55 | 11.6 | 40
51 | ACCGUGGCUUUCGAUUGUUACU [hsa-miR-132-5p] | -1.09 | -7.44 | 68.8
52 | AUGCCUCCCCCGGCCCCGCAG [hsa-miR-6836-3p] | -8.85 | -0.9 | 41.9
53 | AGCUACAUUGUCUGCUGGGUUUC [hsa-miR-221-3p] | 4 | -17.8 | 59.9
54 | UGCCCUUAAAGGUGAACCCAGU [hsa-miR-938] | 6.19 | 6.12 | 57.4
55 | AGAGCUGAGACUAGAAAGCCCA [hsa-miR-3160-3p] | 23.1 | -5.31 | 19.1
56 | UGGAGUGUGACAAUGGUGUUUG [hsa-miR-122-5p] | -11.4 | 14.4 | 52.7
57 | CAGGCGUCUGUCUACGUGGCUU [hsa-miR-3186-5p] | 27.8 | -8.59 | 23.1
58 | AGGCAUGGGAGGUCAGGUGA [hsa-miR-3622b-5p] | 32.5 | -30.6 | 16.5
59 | AGGAGGAAUUGGUGCUGGUCUU [hsa-miR-766-5p] | 33.8 | -33 | 5.17
